Test results taken from paper PMC8670446 (2021).

Molecular target: Ssa1 (S. cerevisiae, UniProt P10591 1-642)
Test: BLI; apparent KD from equilibrium levels; His6-SUMO-Ssa1 immobilized

Chain of Ssa1 (P10591 whole entry): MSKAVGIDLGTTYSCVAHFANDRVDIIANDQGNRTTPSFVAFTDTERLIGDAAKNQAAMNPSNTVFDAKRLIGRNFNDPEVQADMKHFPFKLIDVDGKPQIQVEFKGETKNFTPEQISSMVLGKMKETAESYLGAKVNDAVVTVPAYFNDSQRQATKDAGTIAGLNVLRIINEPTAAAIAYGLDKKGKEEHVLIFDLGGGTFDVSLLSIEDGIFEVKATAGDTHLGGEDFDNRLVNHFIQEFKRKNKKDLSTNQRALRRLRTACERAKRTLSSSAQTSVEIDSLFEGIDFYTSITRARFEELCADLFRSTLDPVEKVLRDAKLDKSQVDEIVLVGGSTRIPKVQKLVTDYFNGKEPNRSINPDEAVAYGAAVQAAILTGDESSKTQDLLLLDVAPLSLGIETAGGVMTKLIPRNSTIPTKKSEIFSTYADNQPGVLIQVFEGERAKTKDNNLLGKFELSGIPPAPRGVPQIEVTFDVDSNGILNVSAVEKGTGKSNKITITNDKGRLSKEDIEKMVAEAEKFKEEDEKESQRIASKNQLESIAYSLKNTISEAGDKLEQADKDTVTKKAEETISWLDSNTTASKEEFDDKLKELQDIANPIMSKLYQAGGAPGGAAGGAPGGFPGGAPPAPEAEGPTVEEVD

B1: Sis1 (natural protein)
chain: MVKETKLYDLLGVSPSANEQELKKGYRKAALKYHPDKPTGDTEKFKEISEAFEILNDPQKREIYDQYGLEAARSGGPSFGPGGPGGAGGAGGFPGGAGGFSGGHAFSNEDAFNIFSQFFGGSSPFGGADDSGFSFSSYPSGGGAGMGGMPGGMGGMHGGMGGMPGGFRSASSSPTYPEEETVQVNLPVSLEDLFVGKKKSFKIGRKGPHGASEKTQIDIQLKPGWKAGTKITYKNQGDYNPQTGRRKTLQFVIQEKSHPNFKRDGDDLIYTLPLSFKESLLGFSKTIQTIDGRTLPLSRVQPVQPSQTSTYPGQGMPTPKNPSQRGNLIVKYKVDYPISLNDAQKRAIDENF
Kd: 210 nM
